Experimental data published in doi:10.1101/2024.01.05.574350, “Heparan sulfate selectively inhibits the collagenase activity of cathepsin K” (bioRxiv, 2024).

Target: T1, mature cathepsin K (murine) (murine, UniProt P55097 115-329)
T1 construct: cathepsin K, murine; catalytic Cys25; 22 kDa as printed; No tag is named; also called CtsK; mature CtsK; source: 293-Freestyle cells, transient expression of pro-CtsK
T1 sequence (looked up): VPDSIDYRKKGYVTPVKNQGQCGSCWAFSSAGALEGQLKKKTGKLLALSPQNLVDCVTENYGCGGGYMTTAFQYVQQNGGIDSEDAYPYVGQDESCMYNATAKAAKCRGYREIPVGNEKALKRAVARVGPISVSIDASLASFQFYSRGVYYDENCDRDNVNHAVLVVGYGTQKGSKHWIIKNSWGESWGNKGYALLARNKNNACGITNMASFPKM
Assay: SEC; CtsK and Cst3 without HS, Superdex200 column
Settings: both partners purified

B1: Cystatin C (natural protein, UniProt P21460 21-140, looked up)
chain: ATPKQGPRMLGAPEEADANEEGVRRALDFAVSEYNKGSNDAYHSRAIQVVRARKQLVAGVNYFLDVEMGRTTCTKSQTNLTDCPFHDQPHLMRKALCSFQIYSVPWKGTHSLTKFSCKNA
notes: Cystatin C (Cst3), 13 kDa as printed; The printed residues (Pro7, Met9, Leu10, Gly11, Ala12, Leu56-Gly59, Pro105-Lys107) fit mature mouse cystatin C as I recall it, not the human protein; human cystatin C (PDB 3GAX) was only the search model for molecular replacement; also called Cst3; Cts3
stoichiometry N: 1
